Data from IntAct's records for PubMed 18612383.

B1: Cellular tumor antigen p53 (Mus musculus), P02340 (parent)
chain: MTAMEESQSDISLELPLSQETFSGLWKLLPPEDILPSPHCMDDLLLPQDVEEFFEGPSEALRVSGAPAAQDPVTETPGPVAPAPATPWPLSSFVPSQKTYQGNYGFHLGFLQSGTAKSVMCTYSPPLNKLFCQLAKTCPVQLWVSATPPAGSRVRAMAIYKKSQHMTEVVRRCPHHERCSDGDGLAPPQHLIRVEGNLYPEYLEDRQTFRHSVVVPYEPPEAGSEYTTIHYKYMCNSSCMGGMNRRPILTIITLEDSSGNLLGRDSFEVRVCACPGRDRRTEEENFRKKEVLCPELPPGSAKRALPTCTSASPPQKKKPLDGEYFTLKIRGRKRFEMFRELNEALELKDAHATEESGDSRAHSSYLKTKKGQSTSRHKKTMVKKVGPDSD

Variants of: B1
Details: with ep300_human EP300, Q09472
Chain of ep300_human EP300, Q09472 (Q09472 whole entry): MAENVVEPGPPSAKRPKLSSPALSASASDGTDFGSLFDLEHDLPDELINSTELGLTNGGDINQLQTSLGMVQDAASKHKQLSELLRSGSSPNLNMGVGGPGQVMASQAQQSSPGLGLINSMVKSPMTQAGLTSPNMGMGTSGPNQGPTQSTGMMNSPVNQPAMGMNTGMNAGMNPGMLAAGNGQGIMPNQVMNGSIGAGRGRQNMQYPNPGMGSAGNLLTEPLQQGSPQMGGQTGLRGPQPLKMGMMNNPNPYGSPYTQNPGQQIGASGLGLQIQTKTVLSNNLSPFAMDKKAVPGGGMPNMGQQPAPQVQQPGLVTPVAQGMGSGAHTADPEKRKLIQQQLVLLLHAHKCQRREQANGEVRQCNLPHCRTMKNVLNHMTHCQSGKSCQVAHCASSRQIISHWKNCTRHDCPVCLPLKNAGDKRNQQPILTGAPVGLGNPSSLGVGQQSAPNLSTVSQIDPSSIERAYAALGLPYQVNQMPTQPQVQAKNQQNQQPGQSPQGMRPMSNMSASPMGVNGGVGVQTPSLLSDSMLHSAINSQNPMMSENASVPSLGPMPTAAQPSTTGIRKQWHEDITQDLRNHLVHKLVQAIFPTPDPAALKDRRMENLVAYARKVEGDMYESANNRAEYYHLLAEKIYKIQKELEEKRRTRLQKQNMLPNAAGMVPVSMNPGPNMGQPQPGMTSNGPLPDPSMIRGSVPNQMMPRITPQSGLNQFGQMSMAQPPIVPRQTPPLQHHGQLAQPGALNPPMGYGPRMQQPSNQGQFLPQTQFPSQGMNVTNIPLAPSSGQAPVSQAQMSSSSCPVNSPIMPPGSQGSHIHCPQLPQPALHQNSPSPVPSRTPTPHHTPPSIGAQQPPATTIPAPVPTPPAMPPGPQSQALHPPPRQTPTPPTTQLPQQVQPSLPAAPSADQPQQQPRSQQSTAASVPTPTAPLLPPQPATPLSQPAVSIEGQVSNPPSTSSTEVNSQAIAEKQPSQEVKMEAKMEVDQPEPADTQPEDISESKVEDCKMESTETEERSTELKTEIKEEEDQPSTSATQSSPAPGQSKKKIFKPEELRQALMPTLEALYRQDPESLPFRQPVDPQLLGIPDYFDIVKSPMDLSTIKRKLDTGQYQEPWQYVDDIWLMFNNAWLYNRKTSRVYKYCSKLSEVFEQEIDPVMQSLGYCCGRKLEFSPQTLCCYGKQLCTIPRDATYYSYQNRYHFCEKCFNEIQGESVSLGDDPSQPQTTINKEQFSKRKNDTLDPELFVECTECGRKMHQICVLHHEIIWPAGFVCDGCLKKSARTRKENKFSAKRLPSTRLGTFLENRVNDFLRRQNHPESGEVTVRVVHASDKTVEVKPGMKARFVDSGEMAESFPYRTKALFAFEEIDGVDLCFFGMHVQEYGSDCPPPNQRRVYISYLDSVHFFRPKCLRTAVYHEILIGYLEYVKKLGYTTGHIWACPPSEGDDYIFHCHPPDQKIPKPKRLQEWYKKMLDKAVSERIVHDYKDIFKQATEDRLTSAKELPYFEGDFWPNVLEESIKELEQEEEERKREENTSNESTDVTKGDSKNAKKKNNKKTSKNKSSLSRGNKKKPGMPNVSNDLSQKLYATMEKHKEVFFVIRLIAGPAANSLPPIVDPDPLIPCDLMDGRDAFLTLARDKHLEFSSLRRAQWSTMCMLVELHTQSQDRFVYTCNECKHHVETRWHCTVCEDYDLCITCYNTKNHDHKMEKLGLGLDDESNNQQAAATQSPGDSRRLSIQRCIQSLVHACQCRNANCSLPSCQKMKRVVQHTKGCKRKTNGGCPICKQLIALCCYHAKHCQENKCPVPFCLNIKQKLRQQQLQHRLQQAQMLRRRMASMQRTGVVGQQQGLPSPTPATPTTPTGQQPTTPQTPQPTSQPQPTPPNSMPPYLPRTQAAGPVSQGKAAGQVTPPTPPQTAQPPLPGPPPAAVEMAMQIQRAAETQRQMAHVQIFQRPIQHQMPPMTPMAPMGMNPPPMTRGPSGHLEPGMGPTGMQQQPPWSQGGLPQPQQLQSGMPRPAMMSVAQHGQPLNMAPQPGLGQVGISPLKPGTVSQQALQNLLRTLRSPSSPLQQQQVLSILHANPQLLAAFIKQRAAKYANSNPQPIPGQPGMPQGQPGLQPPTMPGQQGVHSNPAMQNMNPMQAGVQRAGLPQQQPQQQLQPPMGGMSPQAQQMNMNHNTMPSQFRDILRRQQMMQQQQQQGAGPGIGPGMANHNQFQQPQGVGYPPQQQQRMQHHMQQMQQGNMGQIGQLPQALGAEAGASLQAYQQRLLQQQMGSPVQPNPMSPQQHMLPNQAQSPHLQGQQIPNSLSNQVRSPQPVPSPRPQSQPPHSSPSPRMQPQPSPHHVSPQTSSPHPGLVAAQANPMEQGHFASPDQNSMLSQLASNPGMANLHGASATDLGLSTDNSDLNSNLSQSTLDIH

Row | Variant | effect of a mutation on the interaction
1 | MTAMEESQSDISLELPLSQETFSGQSKLLPPEDILPSPHCMDDLLLPQDVEEFFEGPSEALRVSGAPAAQDPVTETPGPVAPAPATPWPLSSFVPSQKTYQGNYGFHLGFLQSGTAKSVMCTYSPPLNKLFCQLAKTCPVQLWVSATPPAGSRVRAMAIYKKSQHMTEVVRRCPHHERCSDGDGLAPPQHLIRVEGNLYPEYLEDRQTFRHSVVVPYEPPEAGSEYTTIHYKYMCNSSCMGGMNRRPILTIITLEDSSGNLLGRDSFEVRVCACPGRDRRTEEENFRKKEVLCPELPPGSAKRALPTCTSASPPQKKKPLDGEYFTLKIRGRKRFEMFRELNEALELKDAHATEESGDSRAHSSYLKTKKGQSTSRHKKTMVKKVGPDSD [L25Q;W26S] | decreasing interaction
